Measurements: patent US20130164256A1 (AbbVie / Abbott, published 2013)
Numbering of substitutions follows the chain as printed. Blank lines part the entries; values can stand above or below the binder they belong to.

Assays:
Rhesus/Macaque TNF [1] = biological target: Rhesus/Macaque TNF (Rhesus/Macaque, UniProt P48094 77-233); test: cell-based or functional assay
human TNF-α [2] = biological target: T1, human TNF-α (human, UniProt P01375 77-233); test: cell-based or functional assay
T1 sequence (P01375 77-233 R107D limits assumed): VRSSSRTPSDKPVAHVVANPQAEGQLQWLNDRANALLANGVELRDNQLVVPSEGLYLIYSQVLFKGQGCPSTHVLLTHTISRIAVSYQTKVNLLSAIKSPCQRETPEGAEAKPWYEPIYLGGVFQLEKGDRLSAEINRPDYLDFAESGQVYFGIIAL

human TNF-α [3] = biological target: T1, human TNF-α; test: hTNFa ELISA; IgG captured on anti-human IgG-Fc, biotinylated human TNF titrated
human TNF-α [4] = biological target: T2, human TNF-α (human, UniProt P01375 77-233); test: cell-based or functional assay; remark: listed apart in the source
T2 sequence (P01375 77-233 R107D limits assumed): as above

Rhesus/Macaque TNF [5] = biological target: Rhesus/Macaque TNF (rhesus/macaque, UniProt P48094 77-233); test: cell-based or functional assay
Rhesus/Macaque TNF (rhesus/macaque, UniProt P48094 77-233), sequence (P48094 77-233 limits assumed): as the sequence (P01375 77-233 R107D limits assumed) above, with D31R, R44T, T72N, R138L counted along it

human TNF-α [6] = biological target: T2, human TNF-α; test: ELISA: IgG captured on goat anti-human IgG-Fc, biotin-human TNF titrated, streptavidin-HRP

Rhesus/Macaque TNF (Rhesus/Macaque, UniProt P48094 77-233), sequence (P48094 77-233 limits assumed): as the sequence (P01375 77-233 R107D limits assumed) above, with D31R, R44T, T72N, R138L counted along it

B3: hMAK195-AM16 (antibody, V domains shown)
VH: EVQLVESGGGLVQPGGSLRLSCAASGFTFSNYGVTWVRQAPGKGLEWVSMIWADGSTHYASSVKGRFTISRDNSKNTLYLQMNSLRAEDTAVYYCAREWQHGPAAYWGQGTLVTVSS
VL: DIQMTQSPSSLSASVGDRVTITCKASQAVSSAVAWYQQKPGKAPKLLIYWASTRHTGVPSRFSGSGSGTDFTLTISSLQPEDFATYYCQQHYSTPFTFGQGTKLEIKR
notes: Full-length IgG; also called rHC19; hMAK195 rHC19
- hu TNF neutralization IC50 (L929 bioassay) (human TNF-α [4]): 0.0105 nM
- rhesus TNF neutralization IC50 (L929 bioassay) (Rhesus/Macaque TNF [5]): 0.803 nM
- EC50 (human TNF-α [6]): 0.056 nM

B4: hMAK195-AM25 (antibody, V domains shown)
VH: B3 VH with A104V
VL: B3 VL with K24R, A28L, R54L, S93R
notes: Full-length IgG; also called S4-24; hMAK195 S4-24
- hu TNF neutralization IC50 (L929 bioassay) (human TNF-α [4]): 0.0114 nM
- rhesus TNF neutralization IC50 (L929 bioassay) (Rhesus/Macaque TNF [5]): 0.262 nM
- EC50 (human TNF-α [6]): 0.052 nM

B5: hMAK195-AM17 (antibody, V domains shown)
VH: B3 VH with H58D, S61D, S62T, A104V
VL: B3 VL
notes: Full-length IgG; also called rHC22; hMAK195 rHC22
- hu TNF neutralization IC50 (L929 bioassay) (human TNF-α [4]): 0.0031 nM
- rhesus TNF neutralization IC50 (L929 bioassay) (Rhesus/Macaque TNF [5]): > 25 nM
- EC50 (human TNF-α [6]): 0.056 nM

Continued, values first:

- rhesus TNF neutralization IC50 (Rhesus/Macaque TNF [1]): 0.012 nM
- hu TNF neutralization IC50 (human TNF-α [2]): 0.054 nM
- EC50 (human TNF-α [3]): 0.016 nM
B1: hMAK199-AM1 (antibody, V domains shown)
VH: EVQLVQSGAEVKKPGASVKVSCKASGYTFANYGIIWVRQAPGQGLEWMGWINTYTGKPTYAQKFQGRVTMTTDTSTSTAYMELSSLRSEDTAVYYCARKLFTTMDVTDNAMDYWGQGTTVTVSS
VL: DIQMTQSPSSLSASVGDRVTITCRASQDISQYLNWYQQKPGKAPKLLIYYTSRLQSGVPSRFSGSGSGTDFTLTISSLQPEDFATYFCQQGNTWPPTFGQGTKLEIK
notes: scFv clone J662M2S3#10 converted to full length IgG; HC plasmid pHybE-hCg1,z,non-a V2 (human IgG1), LC plasmid pHybE-hCk V3 (human kappa); also called J662M2S3#10

- rhesus TNF neutralization IC50 (Rhesus/Macaque TNF [1]): 0.204 nM
- hu TNF neutralization IC50 (human TNF-α [2]): 0.247 nM
- EC50 (human TNF-α [3]): 0.219 nM
B2: hMAK199-AM8 (antibody, V domains shown)
VH: B1 VH
VL: B1 VL
notes: scFv clone J662M2S3#45 converted to full length IgG; HC plasmid pHybE-hCg1,z,non-a V2 (human IgG1), LC plasmid pHybE-hCk V3 (human kappa); also called J662M2S3#45
